Values quoted from earlier work, collected in article PMC6431256.

Biological target: tau peptide (Homo sapiens) (UniProt P10636)
Assay: ITC

Sequence of Pin1 (Q13526 whole entry): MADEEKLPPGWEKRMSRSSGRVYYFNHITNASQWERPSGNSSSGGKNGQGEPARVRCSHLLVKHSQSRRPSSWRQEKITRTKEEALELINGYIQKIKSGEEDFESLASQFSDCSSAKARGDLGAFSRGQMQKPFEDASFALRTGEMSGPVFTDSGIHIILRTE
Sequence of tau peptide (Homo sapiens) (P10636 2-758): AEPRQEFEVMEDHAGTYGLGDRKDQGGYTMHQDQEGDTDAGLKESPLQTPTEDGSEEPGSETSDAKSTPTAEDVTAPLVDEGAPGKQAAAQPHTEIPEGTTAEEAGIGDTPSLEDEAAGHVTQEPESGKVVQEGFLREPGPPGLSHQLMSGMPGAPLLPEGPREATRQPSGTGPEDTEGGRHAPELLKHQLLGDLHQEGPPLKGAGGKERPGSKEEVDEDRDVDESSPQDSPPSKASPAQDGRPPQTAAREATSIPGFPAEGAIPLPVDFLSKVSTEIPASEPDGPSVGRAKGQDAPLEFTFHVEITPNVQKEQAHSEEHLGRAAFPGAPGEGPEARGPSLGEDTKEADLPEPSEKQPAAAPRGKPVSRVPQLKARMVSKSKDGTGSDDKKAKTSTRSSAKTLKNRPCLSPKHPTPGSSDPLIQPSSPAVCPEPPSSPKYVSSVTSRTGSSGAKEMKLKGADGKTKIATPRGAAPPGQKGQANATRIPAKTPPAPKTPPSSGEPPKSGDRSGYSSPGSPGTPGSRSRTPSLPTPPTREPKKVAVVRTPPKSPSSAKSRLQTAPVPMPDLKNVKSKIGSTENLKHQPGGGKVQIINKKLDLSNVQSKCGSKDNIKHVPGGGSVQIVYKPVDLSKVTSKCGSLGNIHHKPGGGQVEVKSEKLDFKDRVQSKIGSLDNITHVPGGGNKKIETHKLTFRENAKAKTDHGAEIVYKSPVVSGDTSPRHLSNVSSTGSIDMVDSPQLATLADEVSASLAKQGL

Kd: 200 µM
Substance: Pin1 (from UniProt Q13526)
